Laboratory results taken from article PMC3790820, “A Rapid and High-Throughput Quantitation Assay of the Nuclear Factor κB Activity Using Fluorescence Correlation Spectroscopy in the Setting of Clinical Laboratories”.

Key:
[1] = molecular target: T1, NF-kB p50 (hr-p50) (human (recombinant), UniProt P19838 1-433); assay: competition (FCS); little effect at 1 and 50 nM competitor; TAMRA probe N1; 50 mM Tris-HCl pH 7.5, 250 mM NaCl, 1 mM EDTA, 2.5 mM DTT, 10% glycerol, 1 nM TAMRA probe, 1 ug poly(dI-dC), room temperature, 10 min; conditions: protein: commercial; chain copies: 2; hairpin, 21 bp stem, AAAA loop
T1 sequence (P19838 1-433): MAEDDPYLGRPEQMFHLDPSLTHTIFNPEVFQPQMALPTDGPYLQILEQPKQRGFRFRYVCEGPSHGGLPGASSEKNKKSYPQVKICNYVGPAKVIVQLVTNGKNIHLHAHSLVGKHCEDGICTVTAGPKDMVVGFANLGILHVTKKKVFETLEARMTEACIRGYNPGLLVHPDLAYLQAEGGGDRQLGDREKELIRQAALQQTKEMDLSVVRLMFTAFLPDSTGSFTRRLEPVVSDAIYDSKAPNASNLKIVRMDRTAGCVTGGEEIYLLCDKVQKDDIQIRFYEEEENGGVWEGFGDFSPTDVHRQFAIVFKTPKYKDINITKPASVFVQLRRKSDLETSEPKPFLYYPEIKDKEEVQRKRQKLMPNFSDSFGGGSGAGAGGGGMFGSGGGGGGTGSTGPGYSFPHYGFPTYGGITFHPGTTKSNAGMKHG

[2] = molecular target: T1, NF-kB p50 (hr-p50); assay: competition (FCS); 868.0 us at 1 nM, 495.8 us at 50 nM competitor; TAMRA probe N1; 50 mM Tris-HCl pH 7.5, 250 mM NaCl, 1 mM EDTA, 2.5 mM DTT, 10% glycerol, 1 nM TAMRA probe, 1 ug poly(dI-dC), room temperature, 10 min; conditions: protein: commercial; chain copies: 2; hairpin, 22 bp stem, AAAA loop

Binder | binding result [1] | binding result [2]
CAGGCGCGTTTTGACCATCTTAAAAAAGATGGTCAAAACGCGCCTG (structured_DNA) [nonspecific competitor stem-loop] | no binding | –
AGTTGAGGGGACTTTCCCAGGCAAAAGCCTGGGAAAGTCCCCTCAACT (structured_DNA) [wild-type competitor stem-loop] | – | binds
